Where a SMILES comes first, the peptide text is derived from it. Where no end group is shown, it is not given here. MBP = maltose binding protein

The source of these data is patent US6716811B1, “Compounds having affinity for the granulocyte-colony stimulating factor receptor (G-CSFR) and associated uses” (Affymax, Inc., priority 2000, dated 2004).

The target of data set [1] is T1, G-CSFR (Homo sapiens, UniProt Q99062).
T1 sequence (Q99062 25-836): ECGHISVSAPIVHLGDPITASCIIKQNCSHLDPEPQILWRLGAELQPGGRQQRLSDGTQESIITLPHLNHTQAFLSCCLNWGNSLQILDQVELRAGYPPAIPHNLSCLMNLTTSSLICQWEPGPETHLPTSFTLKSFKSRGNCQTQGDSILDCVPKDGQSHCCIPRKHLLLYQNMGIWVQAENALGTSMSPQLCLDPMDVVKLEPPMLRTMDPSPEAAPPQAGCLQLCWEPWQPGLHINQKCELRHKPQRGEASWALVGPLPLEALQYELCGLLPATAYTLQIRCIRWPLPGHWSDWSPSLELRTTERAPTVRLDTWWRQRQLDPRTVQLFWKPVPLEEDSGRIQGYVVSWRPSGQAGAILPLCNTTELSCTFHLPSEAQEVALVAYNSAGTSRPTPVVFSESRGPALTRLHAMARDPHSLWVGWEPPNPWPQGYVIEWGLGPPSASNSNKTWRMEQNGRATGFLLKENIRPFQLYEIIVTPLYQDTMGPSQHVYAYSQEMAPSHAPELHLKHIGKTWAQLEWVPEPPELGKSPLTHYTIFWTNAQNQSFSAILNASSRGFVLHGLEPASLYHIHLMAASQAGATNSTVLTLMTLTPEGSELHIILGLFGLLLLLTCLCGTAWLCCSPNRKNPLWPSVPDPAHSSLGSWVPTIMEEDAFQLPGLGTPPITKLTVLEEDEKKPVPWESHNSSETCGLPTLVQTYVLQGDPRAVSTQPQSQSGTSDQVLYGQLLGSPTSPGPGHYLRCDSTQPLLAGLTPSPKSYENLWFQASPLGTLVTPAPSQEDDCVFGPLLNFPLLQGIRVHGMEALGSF
Nature of the data set: Ba/F3 G-CSFR reporter cell (fos promoter/luciferase) assay. The data set is classed as cell-based. Details: expression vectors encoding the full length human G-CSFR; expressed in transfected cells; host or cells: murine IL-3 dependent Ba/F3 cells. As to the method:
(§1) The bioactivity of selected peptides of the invention was measured in cell-based assays. […] Murine IL-3 dependent Ba/F3 cells were co-transfected with expression vectors encoding the full length human G-CSFR and a luciferase reporter gene controlled by the fos promoter.
Reporter cell assays were performed on the above cell line using peptides of the invention. The cells were maintained in complete RPMI-164Q media containing 10% fetal calf serum, 2 mM L-glutamine, 1X antibiotic-antimycotic solution (Life Technologies), and 10% WEHI-3 conditioned media (source of murine IL-3). For reporter assays, cells were starved overnight in medium which lacks WEHI-3 to reduce luciferase expression to background levels. The cells were then washed twice in PBS, resuspended in media which lacks WEHI-3 conditioned media, and added to wells of a 96-well microtiter plate containing dilutions of peptide or G-CSF at 5×10^4 cells/well. Plates were incubated for 2 hours at 37° C. in a humidified 5% CO2 incubator and luciferase activity was measured by the addition of luciferin (LucLite—Packard Biosciences) to each well. The plates were read in a TopCount (Wallac) microtiter plate luminometer.
To measure the ability of selected peptides of the invention to block G-CSF mediated receptor activation, dilutions of peptide were combined with Ba/F3 G-CSFR reporter cells as described above. After a 30-minute incubation at 37° C., G-CSF was added to each well. The cells were incubated for 2 hours at 37° C. and the amount of luciferase produced was measured as described above.
Ligand mediated G-CSF receptor activation in these cells results in the expression of luciferase, providing a detectable biological signal.
A biosassay was used to measure the potency of AF15846 and other possible G-CSF receptor antagonists. This bioassay utilizes a Ba/F3 cell line containing the rhGCSF receptor and a c-fos promoter/luciferase gene construct (Ba/F3/rhGCSF-R/pFos-1cf). Competent binding of a ligand to the receptor results in expression of lucifierase as the biological readout.

The nature of data set [2]: Stability in cell culture medium (NFS-60-conditioned medium). The data set is classed as in vitro ADME. As to conditions: overnight incubation in NFS-60-conditioned medium.
The next data set relates to NFS-60 cells. As to the kind of experiment: Cell-based assays using NFS-60 cells. Details: species or system Murine.
Data set [3] deals with T2, human thrombopoietin receptor (Homo sapiens, UniProt P40238).
T2 construct: expressed in transfected cells; host or cells: Ba/F3 cells
T2 sequence (P40238 26-635): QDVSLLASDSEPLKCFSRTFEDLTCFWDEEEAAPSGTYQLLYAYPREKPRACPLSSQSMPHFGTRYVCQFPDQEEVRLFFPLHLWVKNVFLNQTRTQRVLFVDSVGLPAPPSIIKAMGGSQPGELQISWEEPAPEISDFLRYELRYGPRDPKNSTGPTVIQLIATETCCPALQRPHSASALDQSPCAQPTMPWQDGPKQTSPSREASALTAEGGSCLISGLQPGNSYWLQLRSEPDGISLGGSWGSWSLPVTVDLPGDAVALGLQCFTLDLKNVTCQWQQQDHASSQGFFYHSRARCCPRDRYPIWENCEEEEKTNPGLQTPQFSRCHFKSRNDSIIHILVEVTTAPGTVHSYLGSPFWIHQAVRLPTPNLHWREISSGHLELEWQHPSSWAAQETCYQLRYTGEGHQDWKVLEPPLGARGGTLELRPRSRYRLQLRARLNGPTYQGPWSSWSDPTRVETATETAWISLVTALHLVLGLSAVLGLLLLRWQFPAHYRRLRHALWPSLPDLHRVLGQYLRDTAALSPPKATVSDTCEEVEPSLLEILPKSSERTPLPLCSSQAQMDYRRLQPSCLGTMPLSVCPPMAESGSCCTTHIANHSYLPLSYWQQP
As to the kind of experiment: Proliferation of Ba/F3 cells expressing the human thrombopoietin receptor. The data set is classed as cell-based. The source says:
(§2) This is true for most of the MBP fusions tested. Presumably the fusion protein is dimerized through intermolecular disulfide bonds between cysteine residues present in the peptide sequence.

For a further data set, the system named is Parental Ba/F3 cells. As to the kind of experiment: Proliferation of parental Ba/F3 cells. It counts as cell-based, Murine.
For data set [4], the target named is T1, G-CSFR. As to the kind of experiment: Ba/F3 G-CSFR cell proliferation assay. It counts as cell-based. More on the design: expression vectors encoding the full length human G-CSFR; expressed in transfected cells; host or cells: murine IL-3 dependent Ba/F3 cells. As to conditions: MBP fusion protein. As to the method:
as §1, §2

The target in data set [5] is T3, G-CSF receptor (Homo sapiens, UniProt Q99062).
T3 sequence (Q99062 25-836): T1 sequence (Q99062 25-836)
Nature of the data set: 125I-G-CSF competition binding assay of oxidized AF15846 fractions. Conditions: HPLC fractions of oxidized AF15846; FIG. 4. The source says: (§3) Several fractions containing oxidized AF15846 resulting from treatment under the conditions described above were collected subjected to testing in two assays: an ^125I-G-CSF competition binding assay and an ELISA format competitive G-CSF receptor-binding assay.

The nature of data set [6]: Incubation of oxidized peptide at 37° C., HPLC pattern. It counts as physicochemical. As to conditions: pH 6.0 or pH 7.5, clean profiles only at pH 4.1. As to the method: The oxidized peptide was also reacted with N-ethylmaleimide (NEM) at 37° C. for 1 hour in 100 mM ammonium acetate, pH 4.1 to see if any free Cys residues remained in the molecule. If this were the case, treatment with the alkylating reagent would result in a shift of the HPLC retention time. Upon incubation with NEM, no such shift was seen (FIG. 7). In contrast, when the oxidized peptide was incubated with the disulfide specific reducing agent TCEP, also in ammonium acetate, a shift to a later retention time, consistent with reduced peptide, was found. The reduced peptide was modified with NEM to produce a peptide that eluted even later than the reduced form.
It was necessary to drop to pH 4.1 to obtain clean profiles upon NEM treatment.

The target of data set [7] is T3, G-CSF receptor. Nature of the data set: ELISA format competitive G-CSF receptor-binding assay. As to conditions: HPLC fractions of oxidized AF15846.
Text: as §3

The target in data set [8] is T1, G-CSFR. More on the design: made in house. As to conditions: read-out: observed affinity for its receptor; cited from earlier work.

In the case of `CC[C@H](C)[C@H](NC(=O)[C@H](CC(=O)O)NC(=O)[C@H](CC(C)C)NC(=O)[C@@H](N)CC(C)C)C(=O)N[C@@H](CS)C(=O)N[C@@H](CCC(=O)O)C(=O)N[C@@H](CC(C)C)C(=O)N[C@@H](CCCCN)C(=O)N[C@@H](CC(C)C)C(=O)N[C@@H](CCC(N)=O)C(=O)N[C@@H](CCC(=O)O)C(=O)N[C@@H](CS)C(=O)N[C@@H](C)C(=O)N[C@@H](CCCNC(=N)N)C(=O)N[C@@H](CCCNC(=N)N)C(=O)N[C@@H](CS)C(=O)N[C@@H](CC(N)=O)C(=O)O` [Example 53, LLDICELKLQECARRCN] (H-LLDICELKLQECARRCN-OH; N-terminus and C-terminus assumed), on G-CSFR [1] (Ba/F3/rhGCSF-R/pFos-lcf, FIGS. 10A, 10B, 11), the “effect on G-CSF dose-response curve (luciferase)” value was “dose-response curve shifting to higher concentrations”. Further, at G-CSFR [1] (increasing concentrations of peptide added before G-CSF, FIG. 3), the “effect on G-CSF response (luciferase)” value was “G-CSFR antagonist”.

EQSNSGWVWV-NH2 [Example 74]: the “stability in cell culture medium” value in [2] is “no loss of activity was observed”. The “antagonist activity in cell-based assays” value in the data set on NFS-60 cells was “antagonist activity at high concentrations”.

With “MBP fusion protein of Example 78: Example 78 peptide fused to the carboxy-terminus of the maltose binding protein (MBP); monomeric and dimeric species ({MBP}-LLDICELKLQECARRCN; cysteine pairing not given here; also: monomeric and dimeric species)”, the “proliferation in response to fusion protein” value (in data set [3]; in the data set with Parental Ba/F3 cells) was “did not proliferate” throughout. In the data set with G-CSFR [4], the “concentration of maximal activity in Ba/F3 G-CSFR cell proliferation assay” value worked out at 100 nM.

In the case of “Tris-oxidized species: active oxidized dimer of AF15846 formed in 50 mM Tris, pH 8 (LLDICELKLQECARRCN; also: homodimer of two chains joined by three parallel interchain disulfides, disulfide at 5, other end not in the chain, disulfide at 12, other end not in the chain, disulfide at 16, other end not in the chain)”, the “activity of fractions in 125I-G-CSF competition binding assay” value with G-CSF receptor [5] is on record as “highest activity”. Further, the “stability on incubation at higher pH” value in data set [6] was “disulfide scrambling and/or degradation”. Also, the “activity of fractions in ELISA format competitive G-CSF receptor-binding assay” value with G-CSF receptor [7] is “highest activity”.

B1: Granulocyte-colony stimulating factor (protein)
chain: TPLGPASSLPQSFLLKCLEQVRKIQGDGAALQEKLCATYKLCHPEELVLLGHSLGIPWAPLSSCPSQALQLAGCLSQLHSGLFLYQGLLQALEGISPELGPTLDTLQLDVADFATTIWQQMEELGMAPALQPTQGAMPAFASAFQRRAGGVLVASHLQSFLEVSYRVLRHLAQP
For B1, the “luciferase response of reporter cells” value in the data set with G-CSFR [1] (ligand alone, FIG. 2) was “dose dependent manner”. In addition, in the data set with G-CSFR [8], the Kd was ~100 pM.
